Results on one molecule are retold here after patent US20130165379A1 (AMYLIN PHARMACEUTICALS, published 2013).

This experiment concerns the target T1, Exendin-4 (Heloderma suspectum (Gila monster); …).
T1 construct: also called synthetic exendin-4
Description: displacement of radiolabeled GLP-1 from RINm5f plasma membranes.

B1: GLP-1 receptor (plasma membrane preparation of rat insulinoma cell line RINm5f) (receptor)
chain: GPRPQGATVSLSETVQKWREYRHQCQRFLTEAPLLATGLFCNRTFDDYACWPDGPPGSFVNVSCPWYLPWASSVLQGHVYRFCTAEGIWLHKDNSSLPWRDLSECEESKQGERNSPEEQLLSLYIIYTVGYALSFSALVIASAILVSFRHLHCTRNYIHLNLFASFILRALSVFIKDAALKWMYSTAAQQHQWDGLLSYQDSLGCRLVFLLMQYCVAANYYWLLVEGVYLYTLLAFSVFSEQRIFKLYLSIGWGVPLLFVIPWGIVKYLYEDEGCWTRNSNMNYWLIIRLPILFAIGVNFLVFIRVICIVIAKLKANLMCKTDIKCRLAKSTLTLIPLLGTHEVIFAFVMDEHARGTLRFVKLFTELSFTSFQGFMVAVLYCFVNNEVQMEFRKSWERWRLERLNIQRDSSMKPLKCPTSSVSSGATVGSSVYAATCQNSCS
notes: whole, on cells; The receptor stood in a plasma membrane preparation of the cells, not on intact cells; also called GLP-1 receptors; RINm5f membranes
Turning to B1, the binding result is listed as “binds”.
